# Test results from publication PMC8303780, “Mutational Analysis of Redβ Single Strand Annealing Protein: Roles of the 14 Lysine Residues in DNA Binding and Recombination In Vivo”.
# T1: Redβ K36A (bacteriophage λ, UniProt P03698 1-261, K36A)
# T1 sequence: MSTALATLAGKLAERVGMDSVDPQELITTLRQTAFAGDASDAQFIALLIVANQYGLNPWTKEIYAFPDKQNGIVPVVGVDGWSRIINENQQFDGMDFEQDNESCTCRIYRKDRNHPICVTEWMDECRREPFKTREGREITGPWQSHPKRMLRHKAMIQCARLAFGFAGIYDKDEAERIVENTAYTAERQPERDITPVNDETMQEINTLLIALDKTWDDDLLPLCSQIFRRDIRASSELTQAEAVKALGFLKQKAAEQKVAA
# T2: Redβ K245A (bacteriophage λ, UniProt P03698 1-261, K245A)
# T2 sequence: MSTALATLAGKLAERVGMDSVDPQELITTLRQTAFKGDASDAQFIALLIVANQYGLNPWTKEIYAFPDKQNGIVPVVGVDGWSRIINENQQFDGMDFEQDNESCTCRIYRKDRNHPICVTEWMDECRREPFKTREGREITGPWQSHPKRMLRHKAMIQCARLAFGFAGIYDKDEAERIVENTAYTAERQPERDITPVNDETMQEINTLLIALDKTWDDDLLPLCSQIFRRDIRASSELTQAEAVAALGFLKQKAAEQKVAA
# T3: Redβ K258A (bacteriophage λ, UniProt P03698 1-261, K258A)
# T3 sequence: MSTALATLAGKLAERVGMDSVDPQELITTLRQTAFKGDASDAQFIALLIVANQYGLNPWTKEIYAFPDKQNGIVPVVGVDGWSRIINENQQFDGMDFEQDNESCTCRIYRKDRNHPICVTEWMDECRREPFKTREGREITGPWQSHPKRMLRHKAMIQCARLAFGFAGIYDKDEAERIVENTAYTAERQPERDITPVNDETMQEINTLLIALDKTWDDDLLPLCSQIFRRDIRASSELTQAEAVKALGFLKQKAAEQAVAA
# T4: Redβ WT (bacteriophage λ, UniProt P03698 1-261)
# T4 sequence: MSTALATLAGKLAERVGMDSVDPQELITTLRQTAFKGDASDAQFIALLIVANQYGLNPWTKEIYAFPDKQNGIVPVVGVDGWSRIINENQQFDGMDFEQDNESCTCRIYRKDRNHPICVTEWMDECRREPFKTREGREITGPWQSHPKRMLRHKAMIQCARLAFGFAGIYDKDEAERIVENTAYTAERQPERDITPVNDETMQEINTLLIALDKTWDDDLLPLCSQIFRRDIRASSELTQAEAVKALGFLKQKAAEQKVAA
# T5: Redβ K148A (bacteriophage λ, UniProt P03698 1-261, K148A)
# T5 sequence: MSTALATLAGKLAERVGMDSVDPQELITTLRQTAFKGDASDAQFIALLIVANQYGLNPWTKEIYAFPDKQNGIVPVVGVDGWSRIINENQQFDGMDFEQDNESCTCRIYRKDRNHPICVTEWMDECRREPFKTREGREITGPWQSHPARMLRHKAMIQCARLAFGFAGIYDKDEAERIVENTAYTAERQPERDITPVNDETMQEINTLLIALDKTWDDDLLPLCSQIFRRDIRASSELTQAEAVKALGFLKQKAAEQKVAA
# T6: Redβ K172A (bacteriophage λ, UniProt P03698 1-261, K172A)
# T6 sequence: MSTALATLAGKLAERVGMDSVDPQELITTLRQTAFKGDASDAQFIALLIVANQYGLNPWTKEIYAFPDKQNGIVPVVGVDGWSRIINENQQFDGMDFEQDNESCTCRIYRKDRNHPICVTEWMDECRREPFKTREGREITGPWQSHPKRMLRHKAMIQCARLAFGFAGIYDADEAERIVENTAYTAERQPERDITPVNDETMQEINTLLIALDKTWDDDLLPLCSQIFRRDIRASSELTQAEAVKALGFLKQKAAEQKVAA
# Tests used:
# Experiment in all cases: EMSA; strands added sequentially; Anisotropy: 50 mM Tris-HCl pH 7.5, 1 mM DTT, 0.1 mg/mL BSA, 10 nM FAM48, 23 °C (Kd per monomer); gel assay: 10 µM Redβ, 50 µM nt of each oligo, PBS, 37 °C, 1% agarose at 22 °C
# Settings in all cases: protein: recombinant; tags: 6xHis removed by thrombin; residual N-terminal GSH; label: 5'-Cy3 and 5'-Cy5; complementary 50-mers; annealed by protein
# [1] = biological target: T1, Redβ K36A
# [2] = biological target: T2, Redβ K245A
# [3] = biological target: T3, Redβ K258A
# [4] = biological target: T4, Redβ WT
# [5] = biological target: T5, Redβ K148A
# [6] = biological target: T6, Redβ K172A
binder,measurement,setting,value
"annealed duplex of Cy3 and Cy5 50-mers, strands added sequentially (dsDNA) DNA 1: GCGGATGGCTTAGAGCAGAATCGCCCTGCATAGCTCGATTTTTGCGGATG DNA 2: CCATCCGCAAAAATCGAGCTATGCAGGGCGATTCTGCTCTAAGCCATCCG",binding result,[1],binds
same,binding result,[2],binds
same,binding result,[3],binds
same,binding result,[4],binds
same,binding result,[5],no binding
same,binding result,[6],no binding
